In the Immune Epitope Database (IEDB) one finds Kd data, which are given here for nine sequences.

A value given as a limit tells only on which side of the number the result lay.

One test addresses HLA-A*01:01. The experiment in a line: IEDB peptide-MHC binding, purified MHC/direct/fluorescence; filed as Kd, often an IC50 or EC50 that approximates it; ≥ and ≤ were set here for values at or beyond the usual limits of such assays.
The target of test [1] is HLA-A*02:01. The description is as above.
The next test deals with HLA-A*03:01. The description is as above.
Test [2] addresses HLA-A*11:01. Described as above.
In a further test the target is HLA-A*24:03. Described as above.
A further test addresses HLA-A*26:01. The test is described as above.
For the next test, the target named is HLA-A*31:01. The test is described as above.
A further test addresses HLA-A*69:01. Described as above.
In the next test the target is HLA-B*07:02. The description is as above.
The target of another test is HLA-B*08:01. Described as above.
For test [3], the target named is HLA-B*15:01. Described as above.
For a further test, the target named is HLA-B*27:05. Described as above.
The target in another test is HLA-B*35:01. Described as above.
A further test addresses HLA-B*40:01. The test is described as above.
A further test concerns the target HLA-B*58:01. The description is as above.
The target in test [4] is HLA-B*46:01. The description is as above.
For another test, the target named is HLA-C*14:02. Described as above. The note with it: source organism: Azotobacter vinelandii DJ.
The next test addresses HLA-B*44:02. Described as above.
The target of the next test is HLA-A*30:01. The test is described as above.
For test [5], the target named is HLA-B*46:01. The experiment in a line: IEDB peptide-MHC binding, purified MHC/competitive/fluorescence; filed as Kd, often an IC50 or EC50 that approximates it; ≥ and ≤ were set here for values at or beyond the usual limits of such assays. The note with it: source organism: Psychromonas sp. PRT-SC03.
The target in test [6] is HLA-A*29:02. The experiment in a line: IEDB peptide-MHC binding, purified MHC/direct/fluorescence; filed as Kd, often an IC50 or EC50 that approximates it; ≥ and ≤ were set here for values at or beyond the usual limits of such assays. As to conditions: source organism: Vibrio parahaemolyticus AQ3810.
The target of the next test is HLA-B*08:02. The test is described as above. As to conditions: source organism: Vibrio parahaemolyticus AQ3810.
The next test addresses HLA-B*18:01. The description is as above. The note with it: source organism: Vibrio parahaemolyticus.
The target in a further test is HLA-B*48:01. Described as above. The note with it: source organism: Vibrio parahaemolyticus.
In a further test the target is HLA-B*51:01. The test is described as above. As to conditions: source organism: Vibrio parahaemolyticus AQ3810.
Test [7] addresses HLA-A*02:01. In words: IEDB peptide-MHC binding, purified MHC/competitive/fluorescence; filed as Kd, often an IC50 or EC50 that approximates it; ≥ and ≤ were set here for values at or beyond the usual limits of such assays. The note with it: source organism: Vibrio antiquarius.
Another test addresses HLA-A*02:03. The test is described as above. The note with it: source organism: Vibrio antiquarius.
The target in another test is HLA-A*02:06. The test is described as above. The note with it: source organism: Vibrio antiquarius.
The target in test [8] is HLA-A*11:01. The description is as above. As to conditions: source organism: Vibrio antiquarius.
In test [9] the target is HLA-B*15:01. The description is as above. The note with it: source organism: Vibrio antiquarius.
Another test concerns the target HLA-B*15:17. Described as above. The note with it: source organism: Vibrio antiquarius.
In another test the target is HLA-B*57:01. The description is as above. As to conditions: source organism: Vibrio antiquarius.
Test [10] has as its target HLA-A*29:02. Described as above.
The target of the next test is HLA-C*15:02. The experiment in a line: IEDB peptide-MHC binding, purified MHC/direct/fluorescence; filed as Kd, often an IC50 or EC50 that approximates it; ≥ and ≤ were set here for values at or beyond the usual limits of such assays. The note with it: source organism: Cryptosporidium parvum Iowa II.
The mark [11] stands for this setting: source organism: Pseudomonas aeruginosa.
Setting [12] is: source organism: Ectopseudomonas mendocina.
The mark [13] stands for this setting: source organism: Burkholderia mallei ATCC 23344.
Where [14] appears, read: source organism: Burkholderia mallei.
The mark [15] stands for this setting: source organism: Escherichia coli O157:H7.
[16] abbreviates: source organism: Giardia lamblia ATCC 50803.
The mark [17] stands for this setting: source organism: Enterobacteria phage f1.
[18] abbreviates: source organism: Vibrio parahaemolyticus.
[19] abbreviates: source organism: Vibrio parahaemolyticus AQ3810.

Take FSDARLAKL: the dissociation constant Kd is 7.32 µM with HLA-A*01:01 (setting [11]); 18 µM in the test with HLA-A*02:01 [1] (setting [11]); not below 20 µM with HLA-A*03:01 (setting [12]); not below 20 µM with HLA-A*11:01 [2] (setting [12]); not below 20 µM with HLA-A*24:03 (setting [12]); not below 20 µM with HLA-A*26:01 (setting [12]). Moreover, the dissociation constant (Kd) in the test with HLA-A*31:01 (setting [12]) was not below 20 µM; with HLA-A*69:01 (setting [12]), not below 20 µM; with HLA-B*07:02 (setting [11]), 7.92 µM; with HLA-B*08:01 (setting [11]), 5.3 µM; in the test with HLA-B*15:01 [3] (setting [12]), not below 20 µM; with HLA-B*27:05 (setting [12]), not below 20 µM. In addition, the Kd in the test with HLA-B*35:01 (setting [11]) was 0.797 µM; in the test with HLA-B*40:01 (setting [11]), 8.72 µM; with HLA-B*58:01 (setting [12]), not below 20 µM.

On to AMYAPYGPF, for which the Kd was 9 µM with HLA-B*07:02 (setting [13]); not above 0.001 µM with HLA-B*15:01 [3] (setting [14]); 1.88 µM with HLA-B*35:01 (setting [13]); 0.958 µM with HLA-B*46:01 [4] (setting [14]); 0.039 µM with HLA-C*14:02.

With ADLRFASEF, the dissociation constant (Kd) with HLA-A*01:01 (setting [15]), with HLA-A*02:01 [1] (setting [15]), with HLA-A*03:01 (setting [15]), with HLA-A*11:01 [2] (setting [15]), in the test with HLA-A*24:03 (setting [15]) and with HLA-A*26:01 (setting [15]) was not below 20 µM throughout. The Kd was not below 20 µM in the test with HLA-A*31:01 (setting [15]); not below 20 µM with HLA-A*69:01 (setting [15]); 11.7 µM with HLA-B*07:02 (setting [15]); 3.84 µM in the test with HLA-B*08:01 (setting [15]); 0.93 µM with HLA-B*15:01 [3] (setting [15]); not below 20 µM in the test with HLA-B*27:05 (setting [15]). The Kd with HLA-B*35:01 (setting [15]) was 0.937 µM; in the test with HLA-B*40:01 (setting [15]) it was not below 20 µM; in the test with HLA-B*44:02 (setting [15]), not below 20 µM; with HLA-B*58:01 (setting [15]), not below 20 µM.

For the sequence CYPRLWGVR, the Kd with HLA-A*01:01 (setting [16]) was not below 20 µM; with HLA-A*02:01 [1] (setting [16]), not below 20 µM; with HLA-A*03:01 (setting [16]), not below 20 µM; in the test with HLA-A*11:01 [2] (setting [16]), not below 10 µM; with HLA-A*26:01 (setting [16]), not below 20 µM; in the test with HLA-A*30:01 (setting [16]) it was 5.83 µM. Further, the Kd with HLA-A*69:01 (setting [16]) was not below 20 µM; with HLA-B*07:02 (setting [16]), 9.36 µM; with HLA-B*08:01 (setting [16]) it was not below 20 µM; with HLA-B*15:01 [3] (setting [16]), not below 20 µM; with HLA-B*27:05 (setting [16]) it was not below 20 µM; with HLA-B*40:01 (setting [16]) it was not below 20 µM. In addition, the equilibrium dissociation constant (Kd) with HLA-B*44:02 (setting [16]) and with HLA-B*58:01 (setting [16]) was not below 20 µM in each case.

For the sequence TFMYVFSTF, the Kd with HLA-A*01:01 (setting [17]) is not below 20 µM; with HLA-A*02:01 [1] (source organism: Inovirus M13), 8.33 µM; with HLA-A*03:01 (setting [17]), not below 20 µM; with HLA-A*11:01 [2] (setting [17]), not below 20 µM; with HLA-A*24:03 (source organism: Inovirus M13) it was 0.00639 µM; with HLA-A*26:01 (setting [17]), not below 20 µM. Further, the Kd is not below 20 µM in the test with HLA-A*69:01 (setting [17]); not below 20 µM in the test with HLA-B*07:02 (setting [17]); not below 20 µM with HLA-B*08:01 (setting [17]); 0.695 µM with HLA-B*15:01 [3] (source organism: Inovirus M13); not below 20 µM with HLA-B*27:05 (setting [17]); 0.0806 µM with HLA-B*35:01 (source organism: Inovirus M13). For the same sequence, the Kd with HLA-B*40:01 (setting [17]) was not below 20 µM; in the test with HLA-B*58:01 (source organism: Inovirus M13), 1.1 µM; in the test with HLA-B*46:01 [5], not below 20 µM.

In the case of EFDNYRGTI, the Kd with HLA-A*01:01 (setting [16]) was not below 20 µM; in the test with HLA-A*02:01 [1] (setting [16]) it was not below 20 µM; in the test with HLA-A*03:01 (setting [16]) it was not below 20 µM; with HLA-A*11:01 [2] (setting [16]), not below 20 µM; with HLA-A*26:01 (setting [16]) it was not below 20 µM; with HLA-A*30:01 (setting [16]) it was 7.45 µM. The Kd with HLA-A*31:01 (setting [16]), with HLA-A*69:01 (setting [16]), with HLA-B*07:02 (setting [16]), in the test with HLA-B*08:01 (setting [16]), in the test with HLA-B*15:01 [3] (setting [16]) and with HLA-B*27:05 (setting [16]) was not below 20 µM throughout. Moreover, the Kd is 16.5 µM in the test with HLA-B*40:01 (setting [16]), not below 20 µM with HLA-B*44:02 (setting [16]) and not below 20 µM in the test with HLA-B*58:01 (setting [16]).

In the case of LVAPHMAMM, the Kd with HLA-A*01:01 (setting [18]) was not below 20 µM; with HLA-A*03:01 (setting [18]), not below 20 µM; with HLA-A*29:02 [6], 0.32 µM; in the test with HLA-A*30:01 (setting [19]) it was not below 20 µM; with HLA-A*31:01 (setting [18]) it was not below 20 µM; in the test with HLA-B*08:02 it was not below 20 µM. The Kd was not below 20 µM with HLA-B*18:01; not below 20 µM with HLA-B*27:05 (setting [18]); not below 20 µM with HLA-B*40:01 (setting [18]); 11 µM with HLA-B*46:01 [4] (setting [18]); not below 20 µM with HLA-B*48:01; not below 20 µM with HLA-B*51:01. Further, the dissociation constant (Kd) with HLA-B*58:01 (setting [19]) was 0.81 µM; with HLA-A*02:01 [7], 3.41 µM; in the test with HLA-A*02:03, 1.14 µM; with HLA-A*02:06 it was 0.0532 µM; with HLA-A*11:01 [8] it was not below 20 µM; with HLA-B*15:01 [9], 0.0965 µM. For the same sequence, the Kd was determined as 0.239 µM with HLA-B*15:17 and 1.13 µM with HLA-B*57:01.

As to PVPDFPYRY, the Kd with HLA-A*29:02 [10] (source organism: Entamoeba dispar SAW760) is 0.0068 µM.

Consider SFIPIFYQF, for which the values for the Kd in the test with HLA-C*15:02 and in the test with HLA-A*29:02 [10] (source organism: Cryptosporidium parvum Iowa II) were not below 20 µM and 0.0022 µM, respectively.
